Source: CN111718416A

Biological target: 硫氧还蛋白(Thioredoxin，Trx)
Assay: indirect ELISA, Trx coated at 3 μg/ml, supernatant of transiently transfected CHO cells diluted 1000-fold, goat anti-mouse HRP

Sequence of 硫氧还蛋白(Thioredoxin，Trx) (P0AA25 2-109): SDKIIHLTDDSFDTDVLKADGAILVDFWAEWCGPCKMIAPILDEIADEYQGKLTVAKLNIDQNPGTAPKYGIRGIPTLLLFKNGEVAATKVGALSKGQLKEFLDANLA

OD (450nm, 参考630nm): > 1 OD
B1: 实施例4的硫氧还蛋白的单克隆抗体(WT) (antibody, mouse IgG1, kappa, V domains shown)
VH: EVKLEESGGGLVQPGGSMKLSCAASGFTFSDGWMDWVRQSPEKGLEWVAELRNDAHNHRTYYAESLKGRFTISRDDSQSNVFLQMNSLRAEDTGIYYCTKRVPEGTGSWFAYWGQGTLVTVSA
VL: DIVMTQSPSSLGMSVGQKVTMSCKSSQSILNSINQKNYLAWYQQRPGQSPKLLVYFGSTRDSGVPDRFIGSGSGTDFTLTISSLQAEDLADYFCQQNYTTPPTFGGGTKLEIKR
